According to patent US7402570:

Columns and labels:
[1] = target: human p53 protein, full length (human) (UniProt P04637); experiment: cell-based or functional assay
[2] = target: lexA-p53 (p53 codons 1-73) fusion (human); experiment: cell-based or functional assay

Chain of human p53 protein, full length (human) (P04637 whole entry, the tested form may be a part): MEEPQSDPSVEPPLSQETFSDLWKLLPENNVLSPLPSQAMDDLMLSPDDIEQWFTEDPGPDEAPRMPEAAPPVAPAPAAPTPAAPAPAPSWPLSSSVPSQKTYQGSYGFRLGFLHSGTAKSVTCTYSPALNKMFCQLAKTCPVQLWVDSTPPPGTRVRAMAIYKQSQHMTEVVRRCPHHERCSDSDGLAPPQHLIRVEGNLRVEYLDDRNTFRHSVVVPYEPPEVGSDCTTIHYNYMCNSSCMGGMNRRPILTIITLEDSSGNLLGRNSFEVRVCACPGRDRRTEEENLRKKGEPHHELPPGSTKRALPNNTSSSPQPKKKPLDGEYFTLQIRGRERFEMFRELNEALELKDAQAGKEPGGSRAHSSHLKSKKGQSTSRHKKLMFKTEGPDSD

Substance: human MDM2 protein (hMDM2), full length
- inhibition of p53-mediated transactivation of a p53-responsive β-galactosidase reporter in yeast [1]: 16 fold
- decrease in lexA-responsive β-galactosidase reporter activity in yeast [2]: 5 fold
